Where no end group is shown, it is not given here. [ ]: non-standard residue; d: D form. The star is where a group is joined. Kyn = Nc1ccccc1C(=O)C[C@H](N)C(=O)O; NMeF = CN[C@@H](Cc1ccccc1)C(=O)O; NHCH2CH2OH = OCCN*
How the values were obtained:
[1] = target: T1, κ-opioid receptor (guinea pig (endogenous in guinea pig …, UniProt P41144 1-380)); test: radioligand binding; displacement of [^3H]HS665 from guinea pig brain membrane homogenate by unlabelled ligand (10^-10 to 10^-5 M); 50 mM Tris-HCl pH 7.4, 25 °C, 30 min; non-specific binding with 10 μM HS665; IC50 converted into Ki by Cheng-Prusoff; conditions: one partner purified
T1 construct: κ-opioid receptor, guinea pig, endogenous in brain membrane homogenate; defined by displacement of [^3H]HS665; In membranes, not on intact cells; also called KOR; k-opioid receptor; source: endogenous, guinea pig brain membrane homogenate

[2] = target: T2, μ-opioid receptor (rat (endogenous in rat brain), UniProt P33535 1-398); test: cell-based or functional assay
[3] = target: T3, δ-opioid receptor (rat (endogenous in rat brain), UniProt P33533 1-372); test: radioligand binding; conditions: one partner purified
T3 construct: δ-opioid receptor, rat (Wistar), endogenous in brain membrane homogenate; defined by displacement of [^3H]Ile^5,6Delt II; In membranes, not on intact cells; also called DOR; source: endogenous, rat brain membrane homogenate

[4] = target: T2, μ-opioid receptor; test: cell-based or functional assay; remark: listed apart in the source
[5] = target: T2, μ-opioid receptor; test: radioligand binding; displacement of [^3H]DAMGO from rat brain membrane homogenate by unlabelled ligand (10^-10 to 10^-5 M); 50 mM Tris-HCl pH 7.4, 35 °C, 45 min; non-specific binding with 10 μM naloxone; IC50 converted into Ki by Cheng-Prusoff, one site competition fit; conditions: one partner purified

T3 sequence (P33533 whole entry, stated change not applied): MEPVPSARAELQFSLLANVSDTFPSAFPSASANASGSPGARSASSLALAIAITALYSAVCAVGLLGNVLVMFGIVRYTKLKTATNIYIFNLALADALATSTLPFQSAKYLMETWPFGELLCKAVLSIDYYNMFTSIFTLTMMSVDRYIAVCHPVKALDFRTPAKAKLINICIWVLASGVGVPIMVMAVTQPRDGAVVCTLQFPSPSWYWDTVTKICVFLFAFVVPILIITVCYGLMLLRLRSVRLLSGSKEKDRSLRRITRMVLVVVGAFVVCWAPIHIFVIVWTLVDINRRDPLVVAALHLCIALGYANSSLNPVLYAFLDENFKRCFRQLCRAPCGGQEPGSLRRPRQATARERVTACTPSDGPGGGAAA
T1 sequence (P41144 whole entry): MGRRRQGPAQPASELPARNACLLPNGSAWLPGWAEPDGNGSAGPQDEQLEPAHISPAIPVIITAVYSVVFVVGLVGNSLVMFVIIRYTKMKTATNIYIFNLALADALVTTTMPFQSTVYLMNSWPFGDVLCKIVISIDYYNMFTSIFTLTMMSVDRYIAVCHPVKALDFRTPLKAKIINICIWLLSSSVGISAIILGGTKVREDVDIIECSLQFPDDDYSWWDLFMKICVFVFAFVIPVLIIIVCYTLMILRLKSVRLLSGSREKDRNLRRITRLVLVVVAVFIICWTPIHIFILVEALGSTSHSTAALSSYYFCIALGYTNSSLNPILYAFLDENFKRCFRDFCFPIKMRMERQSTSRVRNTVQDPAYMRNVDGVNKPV
T2 sequence (P33535 whole entry): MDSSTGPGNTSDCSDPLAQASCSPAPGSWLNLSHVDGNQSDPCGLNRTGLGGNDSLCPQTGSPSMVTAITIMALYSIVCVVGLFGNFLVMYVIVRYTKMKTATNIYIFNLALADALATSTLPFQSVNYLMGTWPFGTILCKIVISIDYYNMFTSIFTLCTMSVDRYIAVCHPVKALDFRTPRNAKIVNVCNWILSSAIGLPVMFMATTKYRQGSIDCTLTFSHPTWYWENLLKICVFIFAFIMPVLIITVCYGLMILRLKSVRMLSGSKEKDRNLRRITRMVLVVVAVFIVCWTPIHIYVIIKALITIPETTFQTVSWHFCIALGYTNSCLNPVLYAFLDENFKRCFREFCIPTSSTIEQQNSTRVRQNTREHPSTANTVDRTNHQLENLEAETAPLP

| Binder | Ki [1] [µM] | logEC50 of [^35S]GTPγS binding as told in the conclusions (differs from Table 2) [2] | Ki [3] [µM] | Log EC50 of [^35S]GTPγS binding (G-protein activation), rat brain membrane homogenates [4] | Ki [5] [µM] |
| --- | --- | --- | --- | --- | --- |
| Y[dA]GF[Kyn]-NH2 [Peptide K6] | 0.128 | -5.6 | 0.0325 | -5.98 | 0.00184 |
| Y[dA]GF[Kyn]-OH [Peptide K5] | > 10 |  | 0.0944 |  | 0.00911 |
| Y[dA]GF[Kyn]-OMe [Peptide K4] | > 10 |  | 0.0312 |  | 0.00229 |
| YP[Kyn]F-NH2 [Peptide K2] |  |  |  |  | 0.00139 |
| YPF[Kyn]-NH2 (N-terminus assumed; SMILES NC(=O)[C@H](CC(=O)c1ccccc1N)NC(=O)[C@H](Cc1ccccc1)NC(=O)[C@@H]1CCCN1C(=O)[C@@H](N)Cc1ccc(O)cc1) [Peptide K3] | > 10 |  | 0.159 |  | 0.197 |
| Y[dA]G[NMeF][NHCH2CH2OH]-{kynurenic acid (ester on OH)} (the order of couplings in Scheme 1 (ethanolamine-kyna ester, Boc-N-Me-Phe, Boc-Gly, Boc-DAla, Boc-Tyr) agrees; the drawn structure is in Scheme 1; also called kyna-containing peptide; source: synthetic peptide (solution phase synthesis, RP-HPLC purified, TFA salt)) [Peptide KA1] | > 10 |  | 0.555 |  |  |
